From patent US20240052034A1

Target: PD-1 on PD-1 reporter Jurkat cells (UniProt Q15116)
Test: cell-based or functional assay

PD-1 on PD-1 reporter Jurkat cells, sequence (Q15116 25-288 limits assumed): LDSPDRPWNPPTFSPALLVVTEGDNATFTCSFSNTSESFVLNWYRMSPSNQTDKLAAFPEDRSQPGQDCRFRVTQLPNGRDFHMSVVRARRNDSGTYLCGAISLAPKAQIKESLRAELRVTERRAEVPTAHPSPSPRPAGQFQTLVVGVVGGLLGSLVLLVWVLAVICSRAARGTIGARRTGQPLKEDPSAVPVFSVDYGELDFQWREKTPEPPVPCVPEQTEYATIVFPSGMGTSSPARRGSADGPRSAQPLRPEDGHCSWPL

- EC50 of SHP-2 recruitment, PD-1 reporter Jurkat cells, Ig-tethered test article on anti-human IgG coated plates: 5.69 nM
Substance: LY3462817 (antibody)
